Experimental data published in article PMC12501251 (Communications Biology, 2025).

Assays:
Test in all cases: ELISA
[1] = target: T1, N2 NA head domain from A/Japan/305/1957 (H2N2) (Influenza A virus A/Japan/305/1957 …, strain)
T1 chain: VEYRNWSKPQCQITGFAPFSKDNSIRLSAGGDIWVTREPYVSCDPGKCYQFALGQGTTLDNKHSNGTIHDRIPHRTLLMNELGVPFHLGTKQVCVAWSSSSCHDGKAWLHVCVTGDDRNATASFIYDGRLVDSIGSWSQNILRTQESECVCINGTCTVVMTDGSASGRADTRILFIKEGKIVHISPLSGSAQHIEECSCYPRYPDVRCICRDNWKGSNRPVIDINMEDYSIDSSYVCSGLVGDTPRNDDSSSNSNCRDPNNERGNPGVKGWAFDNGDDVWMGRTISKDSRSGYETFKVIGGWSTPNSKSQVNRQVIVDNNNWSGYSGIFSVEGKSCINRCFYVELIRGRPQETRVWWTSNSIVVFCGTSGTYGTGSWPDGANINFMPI

[2] = target: N1 NA head domain (residue 82-469) from A/Brevig Mission/1/1918 (H1N1) (Influenza A virus A/Brevig …, UniProt Q9IGQ6)
[3] = target: N8 NA (head domain plus stalk region) from A/gyrfalcon/41088-6/2014 (H5N8) (Influenza A virus …, UniProt A0A0C4WVM3, strain)
[4] = target: N3 NA (head domain plus stalk region) from A/swine/Missouri/2124514/2006 (H2N3) (Influenza A virus …, UniProt A9YN63, strain)

Measured: binding result

Sequence of N1 NA head domain (residue 82-469) from A/Brevig Mission/1/1918 (H1N1) (Q9IGQ6 82-469): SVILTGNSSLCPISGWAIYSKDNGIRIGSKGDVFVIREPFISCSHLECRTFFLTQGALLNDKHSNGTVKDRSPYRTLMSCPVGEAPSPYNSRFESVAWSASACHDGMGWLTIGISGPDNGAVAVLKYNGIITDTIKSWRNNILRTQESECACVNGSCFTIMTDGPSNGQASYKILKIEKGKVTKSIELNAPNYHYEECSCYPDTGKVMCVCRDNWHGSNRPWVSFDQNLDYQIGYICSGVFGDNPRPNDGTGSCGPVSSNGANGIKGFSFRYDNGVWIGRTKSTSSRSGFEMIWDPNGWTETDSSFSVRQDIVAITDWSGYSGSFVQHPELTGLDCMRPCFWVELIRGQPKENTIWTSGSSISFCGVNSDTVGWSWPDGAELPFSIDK

B1: 1122A11 (human IgG1 mAb) (antibody, V domains shown)
VH: QVQLVQSGAEVSKPGASVKVSCKASGYSFTSQSLGWVRQAPGQGLEWMGIINPSGGITNYAHKFQGRVTMTRDTSTSTVYMELSSLRSEDTALYYCVRDLSHYNEVGHDRAYYYGMDIWGQGTTVTVSS
VL: SYELIQPPSVSVSPGQTASITCSGDKLGKKYTCWYQQKPGQSPVLVIYQDNKRPSGIPERFSGSNSGNTATLTISGTQAMDEADYYCQAWDSSAVVFGGGTKLTVL
binds: [1] | [2] | [3] | [4]
